We go through 3 substances from paper PMC1931440.

This experiment addresses murine type IV collagen (murine) (UniProt P02463). Kind of experiment: adherence of recombinant bacteria to collagen-coated wells; intact E. coli EPI300 expressing Hag (~10^7 CFU in PBS with 0.15% gelatin) added to BioCoat murine type IV collagen wells with tissue culture medium; centrifuged 165 x g 5 min; 1 hr at 37°C, 7.5% CO2; washed five times; fixed, crystal violet; bacteria counted per microscopic field, normalized by CFU; negative control E. coli with pCC1.3.
Chain of UniProt P02463 (P02463 173-1669, chain 1 of 2): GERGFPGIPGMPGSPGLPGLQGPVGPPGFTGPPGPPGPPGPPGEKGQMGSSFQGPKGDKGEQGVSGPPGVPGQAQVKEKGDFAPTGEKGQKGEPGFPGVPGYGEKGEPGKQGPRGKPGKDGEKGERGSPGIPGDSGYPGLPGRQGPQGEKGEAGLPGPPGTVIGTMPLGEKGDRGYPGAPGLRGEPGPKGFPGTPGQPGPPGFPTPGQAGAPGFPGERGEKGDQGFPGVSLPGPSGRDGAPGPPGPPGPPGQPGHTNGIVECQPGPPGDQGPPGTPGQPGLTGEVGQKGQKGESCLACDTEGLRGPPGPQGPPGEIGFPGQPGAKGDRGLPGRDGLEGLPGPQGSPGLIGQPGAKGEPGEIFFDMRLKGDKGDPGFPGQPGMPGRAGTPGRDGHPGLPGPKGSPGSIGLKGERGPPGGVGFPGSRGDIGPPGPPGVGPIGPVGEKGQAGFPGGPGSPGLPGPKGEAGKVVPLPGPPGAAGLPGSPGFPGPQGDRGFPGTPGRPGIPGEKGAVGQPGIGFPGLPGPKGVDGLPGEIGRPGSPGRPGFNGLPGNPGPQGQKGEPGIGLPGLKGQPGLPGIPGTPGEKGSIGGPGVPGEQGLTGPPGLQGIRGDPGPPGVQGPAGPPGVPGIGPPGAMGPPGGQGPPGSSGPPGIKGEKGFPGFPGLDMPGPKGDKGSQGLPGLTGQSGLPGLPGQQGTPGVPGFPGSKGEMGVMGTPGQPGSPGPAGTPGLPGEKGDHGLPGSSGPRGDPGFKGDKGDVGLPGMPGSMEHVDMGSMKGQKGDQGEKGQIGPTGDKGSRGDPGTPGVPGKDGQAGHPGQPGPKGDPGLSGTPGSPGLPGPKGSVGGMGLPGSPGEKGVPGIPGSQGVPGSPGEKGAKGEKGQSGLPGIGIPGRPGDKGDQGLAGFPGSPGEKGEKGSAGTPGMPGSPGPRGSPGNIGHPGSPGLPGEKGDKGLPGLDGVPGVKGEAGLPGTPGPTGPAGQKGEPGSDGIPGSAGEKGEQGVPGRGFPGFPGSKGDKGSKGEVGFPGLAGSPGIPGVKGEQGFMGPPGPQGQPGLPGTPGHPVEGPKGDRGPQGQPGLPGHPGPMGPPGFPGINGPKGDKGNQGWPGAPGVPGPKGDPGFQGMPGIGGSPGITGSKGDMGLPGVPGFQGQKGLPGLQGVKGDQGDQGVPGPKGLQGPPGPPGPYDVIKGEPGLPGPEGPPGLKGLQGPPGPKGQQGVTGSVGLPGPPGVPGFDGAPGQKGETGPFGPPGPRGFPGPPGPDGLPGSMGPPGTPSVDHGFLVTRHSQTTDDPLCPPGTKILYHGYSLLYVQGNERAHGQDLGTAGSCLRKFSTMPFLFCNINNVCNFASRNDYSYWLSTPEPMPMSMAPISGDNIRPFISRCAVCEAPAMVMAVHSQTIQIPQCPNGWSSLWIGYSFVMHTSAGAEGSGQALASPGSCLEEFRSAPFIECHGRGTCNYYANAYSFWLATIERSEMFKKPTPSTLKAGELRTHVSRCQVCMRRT
Chain of UniProt P02463 (P08122 184-1707, chain 2 of 2, further chain): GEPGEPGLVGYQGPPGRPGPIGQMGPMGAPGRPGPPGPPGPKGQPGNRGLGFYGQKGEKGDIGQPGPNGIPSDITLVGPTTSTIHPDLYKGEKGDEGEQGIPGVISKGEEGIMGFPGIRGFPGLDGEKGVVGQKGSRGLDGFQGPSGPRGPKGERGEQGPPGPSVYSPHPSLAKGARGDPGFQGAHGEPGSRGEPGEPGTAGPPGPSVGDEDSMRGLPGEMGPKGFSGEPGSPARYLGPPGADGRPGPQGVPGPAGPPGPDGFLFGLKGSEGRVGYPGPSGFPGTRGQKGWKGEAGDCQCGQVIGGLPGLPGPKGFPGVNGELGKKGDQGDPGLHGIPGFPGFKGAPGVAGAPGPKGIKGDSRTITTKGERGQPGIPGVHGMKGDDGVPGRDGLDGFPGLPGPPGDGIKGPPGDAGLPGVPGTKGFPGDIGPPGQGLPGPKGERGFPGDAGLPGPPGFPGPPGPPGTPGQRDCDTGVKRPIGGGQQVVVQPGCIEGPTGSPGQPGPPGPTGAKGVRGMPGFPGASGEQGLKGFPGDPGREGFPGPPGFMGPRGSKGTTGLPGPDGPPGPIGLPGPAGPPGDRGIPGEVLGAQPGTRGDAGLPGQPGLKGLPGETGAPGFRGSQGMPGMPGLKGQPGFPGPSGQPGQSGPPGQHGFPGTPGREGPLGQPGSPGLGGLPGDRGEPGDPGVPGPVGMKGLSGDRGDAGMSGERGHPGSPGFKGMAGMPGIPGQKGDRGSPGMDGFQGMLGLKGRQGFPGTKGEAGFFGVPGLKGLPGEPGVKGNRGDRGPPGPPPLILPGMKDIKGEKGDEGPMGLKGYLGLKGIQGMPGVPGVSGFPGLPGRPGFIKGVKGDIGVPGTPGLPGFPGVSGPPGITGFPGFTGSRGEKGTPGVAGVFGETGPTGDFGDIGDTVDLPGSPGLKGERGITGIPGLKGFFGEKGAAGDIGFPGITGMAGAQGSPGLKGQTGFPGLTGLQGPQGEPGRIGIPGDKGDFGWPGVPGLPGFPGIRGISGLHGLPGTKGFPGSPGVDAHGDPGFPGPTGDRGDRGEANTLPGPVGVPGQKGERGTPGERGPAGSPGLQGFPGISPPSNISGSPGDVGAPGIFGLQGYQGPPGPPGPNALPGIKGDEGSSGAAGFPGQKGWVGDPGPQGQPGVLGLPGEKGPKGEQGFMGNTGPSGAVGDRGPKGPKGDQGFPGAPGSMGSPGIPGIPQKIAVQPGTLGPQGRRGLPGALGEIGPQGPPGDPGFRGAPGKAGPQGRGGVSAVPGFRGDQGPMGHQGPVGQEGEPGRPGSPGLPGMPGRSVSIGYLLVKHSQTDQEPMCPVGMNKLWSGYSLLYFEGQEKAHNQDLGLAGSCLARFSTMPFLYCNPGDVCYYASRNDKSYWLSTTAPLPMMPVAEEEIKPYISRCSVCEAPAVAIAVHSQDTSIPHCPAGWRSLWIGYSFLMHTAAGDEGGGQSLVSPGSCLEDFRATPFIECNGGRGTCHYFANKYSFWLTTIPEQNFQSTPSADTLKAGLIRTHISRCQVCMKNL

Consider “Moraxella catarrhalis strain V1171 Hag protein (natural protein)”, for which the fold adherence to collagen over the negative control (E. coli with pCC1.3) was 35 fold.

As for “Moraxella catarrhalis strain O12E Hag protein (natural protein)”, the fold adherence to collagen over the negative control (E. coli with pCC1.3) came to 35 fold.

Turning to “Moraxella catarrhalis strain O35E Hag protein (wild type) (natural protein)”, the fold adherence to collagen over the negative control (E. coli with pCC1.3) is 80 fold.
